Measured values from US20250147035A1, “METHODS FOR DETECTION OF POST-TRANSLATIONAL MODIFICATIONS” (Quantum-Si Incorporated, priority 2023, published 2025).
Like-named read-outs stand apart in the source and are kept apart here. Primed or numbered codes have the meaning given here. Where no end group is shown, it is not given here. [ ]: non-standard residue; d: D form. pT = C[C@@H](OP(=O)(O)O)[C@H](N)C(=O)O; pS = N[C@@H](COP(=O)(O)O)C(=O)O; Biotin′ = not defined here

What was measured:
p…-Biotin [1] = target: T1, p…-Biotin; assay: Octet (BLI), fixed reagent concentration
T1 sequence (peptide, phosphoserine at 1; C-terminal Biotin): SAKLDEESILKQ

…-Biotin = target: T2, …-Biotin; assay: Octet (BLI), fixed reagent concentration
T2 sequence (peptide, C-terminal Biotin): SAKLDEESILKQ

p…-Biotin [2] = target: T3, p…-Biotin; assay: Octet (BLI), fixed reagent concentration; remark: listed apart in the source
T3 sequence (peptide, phosphothreonine at 1; C-terminal Biotin): TAKLDEESILKQ

EFLN-pT-RFYK = assay: Octet (BLI), sensors coated with peptide
[3] = target: pT-…; assay: Octet (BLI), sensors coated with peptide
[4] = target: p…; assay: Octet (BLI), sensors coated with peptide
QRFpYLAYPDDD-FITC = assay: bulk fluorescence polarization, 0.5 µM PM49, FITC-labeled peptide
SAKLDEESILKQ-Biotin = assay: Octet binding assay of PTM-specific affinity reagent candidates, SA control peptide; set-up: unit not given here; details: fixed concentration of reagent
Text: (§1) This Example characterizes an exemplary phosphorylated threonine recognizer for use in methods of the disclosure.

pSAKLDEESILKQ-Biotin [5] = assay: Octet binding assay of PTM-specific affinity reagent candidates, pSA peptide; details: fixed concentration of reagent
Text: as §1

p[…]-Biotin [6] = assay: Octet binding assay of PTM-specific affinity reagent candidates, pTA peptide; details: fixed concentration of reagent
Text: as §1

p[…]-Biotin [7] = assay: Octet binding assay of PTM-specific affinity reagent candidates, pTQR peptide; details: fixed concentration of reagent
Description: This Example characterizes an exemplary phosphorylated threonine recognizer for use in methods of the disclosure. Octet binding assays at a fixed concentration of PTM-specific affinity reagent candidates were evaluated for binding with phospho-threonine, phospho-serine containing peptides (p[…]-Biotin; p[…]-Biotin; p[…]-Biotin), and control peptides without modifications ([…]-Biotin; […]-Biotin).

TAKLDEESILKQ-Biotin = target: T4, TAKLDEESILKQ-Biotin; assay: Octet (BLI), fixed reagent concentration;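 further: octet binding of candidate PTM-specific affinity reagents, each at one fixed concentration, to biotinylated phospho-Thr or phospho-Ser peptides, with unmodified biotinylated peptides serving as controls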
T4 peptide: TAKLDEESILKQ-{Biotin′}
Description: (§3) Octet binding assays at a fixed concentration of PTM-specific affinity reagent candidates were evaluated for binding with phospho-threonine, phospho-serine containing peptides (p[sequence]-Biotin; p[sequence]-Biotin; p[sequence]-Biotin), and control peptides without modifications ([sequence]-Biotin; [sequence]-Biotin).

p…-Biotin [8] = assay: Octet (BLI), fixed reagent concentration; remark: listed apart in the source
pSAKLDEESILKQ-Biotin [9] = target: T5, pSAKLDEESILKQ-Biotin; assay: Octet (BLI), fixed reagent concentration;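 further: octet binding of candidate PTM-specific affinity reagents, each at one fixed concentration, to biotinylated phospho-Thr or phospho-Ser peptides, with unmodified biotinylated peptides serving as controls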
T5 peptide: [pS]AKLDEESILKQ-{Biotin′}
Description: as §3

pTAKLDEESILKQ-Biotin = target: T6, pTAKLDEESILKQ-Biotin; assay: Octet (BLI), fixed reagent concentration;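 further: octet binding of candidate PTM-specific affinity reagents, each at one fixed concentration, to biotinylated phospho-Thr or phospho-Ser peptides, with unmodified biotinylated peptides serving as controls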
T6 peptide: [pT]AKLDEESILKQ-{Biotin′}
Description: as §3

LAQ-pY-LAYPDDDK = assay: On-chip fluorescence signature of PTM-specific affinity reagent binding before sequencing (Example 1); details: polypeptide with PTM, collected for 30 minutes
Description: (§2) A control polypeptide ([…]) and a model polypeptide comprising a phospho-tyrosine (LAQ-pY-[…]) were tested in this Example. Each polypeptide was first immobilized onto independent surfaces of a chip. A post-translational modification-specific (PTM-specific) affinity reagent that binds to phospho-tyrosine (PS33 (SEQ ID NO: 35)) and comprised a fluorescent label was then added to the chip and allowed to contact the polypeptides. […] The chip was then washed to remove the PTM-specific affinity reagent. A protein sequencing analysis of the polypeptides was then performed. A mixture of labeled terminal amino acid recognition molecules was added to the chip and allowed to incubate for 15 minutes. After 15 minutes, a mixture of cleaving reagents (a mixture of aminopeptidases) was added to the chip. During these steps, a series of signal pulses indicative of association of the one or more terminal amino acid recognition molecules with successive amino acids exposed at a terminus of each polypeptide were collected while each polypeptide was being degraded.

LAQYLAYPDDDK = assay: On-chip fluorescence signature of PTM-specific affinity reagent binding before sequencing (Example 1), control polypeptide; details: polypeptide without PTM, collected for 30 minutes
Description: as §2

Molecule: PM06 (Human/14-3-3 protein zeta/delta) (from UniProt P63103 1-245)
- Octet binding assay response (p…-Biotin [1]): 0.1
- Octet binding assay response (…-Biotin): 0.1

Molecule: PM12 (Mycobacterium tuberculosis/FhaA) (from UniProt P71590 430-527)
- Octet binding assay response (…-Biotin): 0.6
- Octet binding assay response (p…-Biotin [2]): 7.1
- Octet shift (EFLN-pT-RFYK): 6.8
- Octet shift [3]: 4.4

Molecule: PM49 (ABCAM® Biotin Anti-Phosphotyrosine antibody [EPR16871])
- Octet shift [4]: 10.2
- fold tighter binding affinity against an N-terminal phospho-tyrosine (QRFpYLAYPDDD-FITC): 2 fold

Molecule: PM06: Human/14-3-3 protein zeta/delta, SEQ ID NO: 6
- Octet binding assay response, SA (SAKLDEESILKQ-Biotin; SA = SAKLDEESILKQ-Biotin (control)): 0.1
- Octet binding assay response, pSA (pSAKLDEESILKQ-Biotin [5]): 0.1

B1: PM18 (Human/MINT) (other)
chain: MVDMVQLLKKYPIVWQGLLALKNDTAAVQLHFVSGNNVLAHRSLPLSEGGPPLRIAQRMRLEATQLEGVARRMTVETDYCLLLALPCGRDQEDVVSQTESLKAAFITYLQAKQAAGIINVPNPGSNQPAYVLQIFPPCEFSESHLSRLAPDLLASISNISPHLMIVIASV
- Octet binding assay response (p…-Biotin [1]): 0.6
- Octet binding assay response (…-Biotin): 0.9
- Octet binding assay response (p…-Biotin [2]; pTA phosphothreonine peptide): 0.7
- Octet binding assay response (p…-Biotin [2]; pTQR phosphothreonine peptide): 1.6
- Octet binding assay response, pTA (p[…]-Biotin [6]): 0.7
- Octet binding assay response, pTQR (p[…]-Biotin [7]): 1.6
- Octet binding assay response (TAKLDEESILKQ-Biotin): 0.6
- Octet binding assay response, SA (SAKLDEESILKQ-Biotin; SA = […]-Biotin (control)): 0.9

B2: PM03 (Human/14-3-3 protein eta) (other)
chain: MGDREQLLQRARLAEQAERYDDMASAMKAVTELNEPLSNEDRNLLSVAYKNVVGARRSSWRVISSIEQKTMADGNEKKLEKVKAYREKIEKELETVCNDVLSLLDKFLIKNCNDFQYESKVFYLKMKGDYYRYLAEVASGEKKNSVVEASEAAYKEAFEISKEQMQPTHPIRLGLALNFSVFYYEIQNAPEQACLLAKQAFDDAIAELDTLNEDSYKDSTLIMQLLRDNLTLWTSDQQDEEAGEGN
- Octet binding assay response (…-Biotin): 0.3
- Octet binding assay response (p…-Biotin [8]): 0.4
- Octet binding assay response (TAKLDEESILKQ-Biotin): 0.2
- Octet binding assay response (pSAKLDEESILKQ-Biotin [9]): 0.2
- Octet binding assay response (pTAKLDEESILKQ-Biotin): 0.2

B3: PM13 (Saccharomyces cerevisiae/FHA1) (other)
chain: MENITQPTQQSTQATQRFLIEKFSQEQIGENIVCRVICTTGQIPIRDLSADISQVLKEKRSIKKVWTFGRNPACDYHLGNISRLSNKHFQILLGEDGNLLLNDISTNGTWLNGQKVEKNSNQLLSQGDEITVGVGVESDILSLVIFINDKFKQCLEQNKVDRIRSNLKNTSKIASPGLTSSTASSMVANKTGIFKDFSIIDEVVGQGAFATVKKAIERTTGKTFAVKIISKRKVIGNMDGVTRELEVLQKLNHPRIVRLKGFYEDTESYYMVMEFVSGG
- Octet binding assay response (…-Biotin): 0.2
- Octet binding assay response (p…-Biotin [2]; pTA phosphothreonine peptide): 1.8
- Octet binding assay response (p…-Biotin [2]; pTQR phosphothreonine peptide): 3.2
- Octet binding assay response, pTA (p[…]-Biotin [6]): 1.8
- Octet binding assay response, pTQR (p[…]-Biotin [7]): 3.2
- Octet binding assay response (TAKLDEESILKQ-Biotin): 0.3
- Octet binding assay response (pSAKLDEESILKQ-Biotin [9]): 0.3
- Octet binding assay response, SA (SAKLDEESILKQ-Biotin; SA = […]-Biotin (control)): 0.2

B4: PM02 (Human/14-3-3 protein theta) (other)
chain: MEKTELIQKAKLAEQAERYDDMATCMKAVTEQGAELSNEERNLLSVAYKNVVGGRRSAWRVISSIEQKTDTSDKKLQLIKDYREKVESELRSICTTVLELLDKYLIANATNPESKVFYLKMKGDYFRYLAEVACGDDRKQTIDNSQGAYQEAFDISKKEMQPTHPIRLGLALNFSVFYYEILNNPELACTLAKTAFDEAIAELDTLNEDSYKDSTLIMQLLRDNLTLWTSDSAGEECDAAEGAEN
- Octet binding assay response (…-Biotin): 0.3
- Octet binding assay response (p…-Biotin [8]): 0.5
- Octet binding assay response (TAKLDEESILKQ-Biotin): 0.3
- Octet binding assay response (pSAKLDEESILKQ-Biotin [9]): 0.3
- Octet binding assay response (pTAKLDEESILKQ-Biotin): 0.3

B5: PM05 (Human/14-3-3 protein beta/alpha) (other)
chain: MTMDKSELVQKAKLAEQAERYDDMAAAMKAVTEQGHELSNEERNLLSVAYKNVVGARRSSWRVISSIEQKTERNEKKQQMGKEYREKIEAELQDICNDVLELLDKYLIPNATQPESKVFYLKMKGDYFRYLSEVASGDNKQTTVSNSQQAYQEAFEISKKEMQPTHPIRLGLALNFSVFYYEILNSPEKACSLAKTAFDEAIAELDTLNEESYKDSTLIMQLLRDNLTLWTSENQGDEGDAGEGEN
- Octet binding assay response (…-Biotin): 0.2
- Octet binding assay response (p…-Biotin [8]): 0.2
- Octet binding assay response (TAKLDEESILKQ-Biotin): 0.2
- Octet binding assay response (pSAKLDEESILKQ-Biotin [9]): 0.2
- Octet binding assay response (pTAKLDEESILKQ-Biotin): 0.2

B6: PS33: SH domanin Fyn Triple mutant, SEQ ID NO: 35; PTM-specific affinity reagent that specifically binds to phospho-tyrosine (protein)
chain: MGAMDSIQAEEWYFGKLGRKDAERQLLSFGNPRGTFLIRESETVKGAYALSIRDWDDMKGDHVKHYLIRKLDNGGYYITTRAQFETLQQLVQHYSERAAGLSSRLVVPSHK
- fluorescence signature representative of binding interaction(s) (LAQ-pY-LAYPDDDK): strong fluorescence signature
- fluorescence signature representative of binding interaction(s) (LAQYLAYPDDDK): no fluorescence signature
